Experimental findings from article PMC8512817, “Domain Analysis and Motif Matcher (DAMM): A Program to Predict Selectivity Determinants in Monosiga brevicollis PDZ Domains Using Human PDZ Data” (Molecules, 2021) are described below.

T1 sequence (Q12959 220-317): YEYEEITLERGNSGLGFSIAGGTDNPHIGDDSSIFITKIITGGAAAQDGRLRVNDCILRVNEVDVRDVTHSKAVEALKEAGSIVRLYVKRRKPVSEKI

This test concerns the target T1, DLG1-1 PDZ (DLG1 PDZ1, residues 220-317) (human, UniProt Q12959 220-317).
T1 construct: not shown: His tag, N-terminal, kept
The experiment in a line: fluorescence polarisation. Conditions: both partners purified. In general terms: In fluorescence polarisation assays a small probe gives low polarisation when free and higher when bound to something large.
Broadly, the Ki is the dissociation constant of the complex between target and ligand, obtained from inhibition or displacement. A lower Ki goes with a stronger hold on the target. Consider QSSSEA [GAIP peptide (QSSSEA)], for which affinity was put at a Ki of 980 ± 180 µM.
For PNQSVV [TYRP1 peptide (PNQSVV)] the value was 46 ± 21 µM.
QSESRL [A9UP44 peptide (QSESRL)] yielded a Ki of 39 ± 25 µM.
With ESESKV [GIRK3 peptide (ESESKV)] the figure was 350 ± 20 µM; with ASESKV [B1AR peptide (ASESKV)], 44 ± 23 µM.
For the molecule SSRTRRETQL [HPV16 E6 peptide (SSRTRRETQL)], the Ki was found to be 23 ± 5 µM.
EDETAL [A9V7Z4 peptide (EDETAL)]: affinity was put at a Ki of 460 ± 190 µM. Against the preceding molecule, the Ki is about 20-fold higher.
With QDETAL [A9UXE1 peptide (QDETAL)] the figure was 190 ± 20 µM; with WDETNL [BPIX peptide (WDETNL)], 460 ± 140 µM.
